In patent publication US6403765B1, “Truncated Apaf-1 and methods of use thereof” (Thomas Jefferson University, priority 1998, dated 2002):

Experiments:
[1] = target: T1, procaspase-9 (Homo sapiens, UniProt P55211, D315A); test: In vitro caspase 9 activation assay: recombinant Apaf-1 variants incubated with in vitro translated procaspase-9; format: biochemical; conditions: 35S-labeled substrate, FIG. 3
T1 construct: schematic representation of full length procaspase-9; made in house; host or cells: coupled in vitro transcription/translation in rabbit reticulocyte lysate (TNT Kit, Promega)
T1 sequence (P55211 1-416 D315A): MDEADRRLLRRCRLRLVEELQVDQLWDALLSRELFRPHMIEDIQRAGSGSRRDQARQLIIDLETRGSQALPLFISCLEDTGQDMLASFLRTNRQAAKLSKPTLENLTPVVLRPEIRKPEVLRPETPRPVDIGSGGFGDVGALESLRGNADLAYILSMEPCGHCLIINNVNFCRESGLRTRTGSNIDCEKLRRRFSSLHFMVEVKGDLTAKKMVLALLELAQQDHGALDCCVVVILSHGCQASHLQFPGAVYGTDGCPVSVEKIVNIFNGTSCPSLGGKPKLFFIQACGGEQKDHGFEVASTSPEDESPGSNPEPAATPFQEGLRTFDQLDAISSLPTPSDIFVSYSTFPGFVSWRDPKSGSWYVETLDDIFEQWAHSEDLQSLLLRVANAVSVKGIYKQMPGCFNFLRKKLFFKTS

[2] = target: T2, procaspase-3 (Homo sapiens, UniProt P42574); test: Processing of procaspase-3 by Apaf-530-bound caspase-9; format: biochemical; conditions: Apaf-530 with non-radiolabeled WT procaspase-9, FIG. 15
T2 construct: made in house; host or cells: coupled in vitro transcription/translation in rabbit reticulocyte lysate (TNT Kit, Promega)
T2 sequence (P42574 1-277): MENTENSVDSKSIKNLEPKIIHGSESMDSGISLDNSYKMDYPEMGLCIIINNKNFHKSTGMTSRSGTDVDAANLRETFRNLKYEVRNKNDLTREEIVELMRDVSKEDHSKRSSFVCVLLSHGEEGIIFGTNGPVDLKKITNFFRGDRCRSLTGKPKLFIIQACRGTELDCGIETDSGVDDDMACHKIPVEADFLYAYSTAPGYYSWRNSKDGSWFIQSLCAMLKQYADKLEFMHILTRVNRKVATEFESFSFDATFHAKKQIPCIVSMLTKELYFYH
Description: (§1) To achieve this, a chimeric procaspase-3 with an N-terminal caspase-9 prodomain was constructed. Caspase-9 prodomain in the chimera may allow recruitment of the chimeric procaspase-3 to the Apaf-530-caspase-9 complex. […] In FIG. 15, ^35S-labeled chimeric procaspase-3 with an N-terminal procaspase-9 prodomain (lanes 1-4) or WT procaspase-3 (lanes 5-8) were incubated with buffer or Apaf-530 in the presence or absence of a non-radiolabeled WT procaspase-9 and analyzed by SDS-PAGE followed by autoradiography.

[3] = tested on: chimeric procaspase-3 with an N-terminal procaspase-9 prodomain; test: Processing of chimeric procaspase-3 by Apaf-530-bound caspase-9; format: biochemical; conditions: Apaf-530 in the absence of procaspase-9, FIG. 15
Description: as §1

[4] = target: T3, T7-tagged Bcl-xL (Homo sapiens, UniProt Q07817); test: Co-immunoprecipitation of Flag-tagged Apaf-1 variants or procaspase-9 with T7-tagged Bcl-xL in 293 cells; format: binding; conditions: anti-Flag immunoprecipitation, anti-T7 blot, 36 hours, FIG. 16
T3 construct: expressed in transfected cells; host or cells: 293 cells
Description: In vivo interaction experiments between Apaf-1 variants and Bcl-xL were performed. To analyze the ability of Apaf-1 to interact with Bcl-xL, 293 cells were co-transfected with constructs encoding T7-tagged Bcl-xL and constructs encoding Flag-tagged Apaf-97 (FIG. 16, lane 1), Apaf-1 (FIG. 16, lane 2), Apaf-530 (FIG. 16, lane 3) Apaf-530ΔCARD (FIG. 16, lane 4), or procaspase-9 C287A (FIG. 16, lane 5). After 36 hours, extracts were prepared and immunoprecipitated with a monoclonal antibody to the Flag epitope. The immunoprecipitates (FIG. 16, upper panel) were analyzed by SDS-PAGE and immunoblotted with a horseradish peroxidase-conjugated T7 antibody. The corresponding cellular extracts were also analyzed by SDS-PAGE and immunoblotted with a horseradish peroxides-conjugated T7 antibody (FIG. 16, middle panel) or an anti-Flag antibody (FIG. 16, lower panel).

T3 sequence (Q07817 whole entry): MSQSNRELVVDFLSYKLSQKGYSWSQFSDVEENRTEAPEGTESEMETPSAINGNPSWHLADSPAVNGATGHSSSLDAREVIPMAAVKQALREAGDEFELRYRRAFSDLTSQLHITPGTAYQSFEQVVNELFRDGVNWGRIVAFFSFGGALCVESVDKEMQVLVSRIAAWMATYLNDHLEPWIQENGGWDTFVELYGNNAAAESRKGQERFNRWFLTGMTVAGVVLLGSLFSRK

B1: Apaf-530: truncated Apaf-1 (residues 1-530) lacking its WD-40 repeats, recombinant (protein, UniProt O14727 1-530, looked up, fragment)
chain: MDAKARNCLLQHREALEKDIKTSYIMDHMISDGFLTISEEEKVRNEPTQQQRAAMLIKMILKKDNDSYVSFYNALLHEGYKDLAALLHDGIPVVSSSSGKDSVSGITSYVRTVLCEGGVPQRPVVFVTRKKLVNAIQQKLSKLKGEPGWVTIHGMAGCGKSVLAAEAVRDHSLLEGCFPGGVHWVSVGKQDKSGLLMKLQNLCTRLDQDESFSQRLPLNIEEAKDRLRILMLRKHPRSLLILDDVWDSWVLKAFDSQCQILLTTRDKSVTDSVMGPKYVVPVESSLGKEKGLEILSLFVNMKKADLPEQAHSIIKECKGSPLVVSLIGALLRDFPNRWEYYLKQLQNKQFKRIRKSSSYDYEALDEAMSISVEMLREDIKDYYTDLSILQKDVKVPTKVLCILWDMETEEVEDILQEFVNKSLLFCDRNGKSFRYYLHDLQVDFLTEKNCSQLQDLHKKIITQFQRYHQPHTLSPDQEDCMYWYNFLAYHMASAKMHKELCALMFSLDWIKAKTELVGPAHLIHEFVEYR
- processing of D315A mutant procaspase-9 [1]: unable to process
- processing of WT procaspase-3 [2]: no processing of procaspase-3 was observed
- processing of chimeric procaspase-3 [3]: no processing was observed
- co-immunoprecipitation with Bcl-xL [4]: capable of immunoprecipitating Bcl-xL
